Measurements from PMC12146755.

Key:
[1] = molecular target: CD3ε (antigen of the surface plasmon resonance) (human) (UniProt P07766); test: SPR; format and conditions not given in the main text (SI Appendix, Fig. S1 D-F)
Target sequence in this assay (P07766 23-207): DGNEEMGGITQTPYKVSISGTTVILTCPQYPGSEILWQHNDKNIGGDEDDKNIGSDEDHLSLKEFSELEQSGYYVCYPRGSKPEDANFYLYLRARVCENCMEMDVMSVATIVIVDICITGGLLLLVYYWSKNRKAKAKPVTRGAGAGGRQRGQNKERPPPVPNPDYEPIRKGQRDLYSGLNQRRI

[2] = molecular target: CD3ε (antigen of the surface plasmon resonance) (human) (UniProt P07766); test: SPR; settings: bispecific antibody
Target sequence in this assay (P07766 23-126): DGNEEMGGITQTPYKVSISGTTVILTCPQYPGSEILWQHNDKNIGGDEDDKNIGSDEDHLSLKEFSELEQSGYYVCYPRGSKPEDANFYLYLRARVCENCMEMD

[3] = molecular target: Her2 (antigen of the surface plasmon resonance) (human) (UniProt P04626); test: SPR; settings: bispecific antibody

| Kd [1] | Kd [2] | Kd [3] | Substance |
| --- | --- | --- | --- |
| < 10 nM | – | – | Bispecific T cell engager Format C (anti-Her2 x anti-CD3ε, IgG1-based) (bispecific antibody) |
| – | 5.4 nM | 0.086 nM | Bispecific T cell engager Format C (anti-Her2 x anti-CD3ε, IgG1-based) (from UniProt P01857) |
| < 10 nM | – | – | Bispecific T cell engager Format A (anti-Her2 x anti-CD3ε, IgG1-based) (bispecific antibody) |
| – | 4.2 nM | 0.249 nM | Bispecific T cell engager Format B (anti-Her2 x anti-CD3ε, IgG1-based) (from UniProt P01857) |
| < 10 nM | – | – | Bispecific T cell engager Format B (anti-Her2 x anti-CD3ε, IgG1-based) (bispecific antibody) |
| – | 3.8 nM | 0.156 nM | Bispecific T cell engager Format A (anti-Her2 x anti-CD3ε, IgG1-based) (from UniProt P01857) |
